Measured values published in patent publication US20260217797A1 (Takeda / Millennium, published 2026).
Numbering of substitutions follows the chain as printed. Where two headings read alike, the source gives them in different places.

T1: MERS-CoV [change] (MERS-CoV, UniProt K9N5Q8 18-725)
T1 sequence: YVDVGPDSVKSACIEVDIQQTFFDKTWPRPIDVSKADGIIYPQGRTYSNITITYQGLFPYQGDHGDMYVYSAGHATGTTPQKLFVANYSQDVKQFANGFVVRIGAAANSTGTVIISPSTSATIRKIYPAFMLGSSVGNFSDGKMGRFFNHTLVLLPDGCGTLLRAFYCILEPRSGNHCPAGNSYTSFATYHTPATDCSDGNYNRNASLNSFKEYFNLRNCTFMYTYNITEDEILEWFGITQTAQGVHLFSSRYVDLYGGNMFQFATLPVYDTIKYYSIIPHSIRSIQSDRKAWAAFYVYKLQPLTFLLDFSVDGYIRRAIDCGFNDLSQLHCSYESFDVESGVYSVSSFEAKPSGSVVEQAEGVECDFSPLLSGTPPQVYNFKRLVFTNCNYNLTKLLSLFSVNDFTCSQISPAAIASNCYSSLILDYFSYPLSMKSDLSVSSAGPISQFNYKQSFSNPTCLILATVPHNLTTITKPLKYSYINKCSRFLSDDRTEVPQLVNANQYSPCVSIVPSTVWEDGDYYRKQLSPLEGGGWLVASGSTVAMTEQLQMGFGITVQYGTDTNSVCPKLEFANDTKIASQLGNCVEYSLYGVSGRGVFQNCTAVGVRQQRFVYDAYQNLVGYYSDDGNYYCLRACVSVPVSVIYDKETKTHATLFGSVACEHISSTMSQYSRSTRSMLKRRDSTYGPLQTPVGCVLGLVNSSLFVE

B1: A-16 (antibody, V domains shown)
VH: QVQLVESGGGLVQPGRSLRLSCAASGFTFDDYAMHWVRQAPGKGLEWVSGISWNSGTIGYADSVKGRFIISRDNAKNSLYLQMNSLRGEDMALYYCGKDRKREDPSLGGMDVWGQGTTVTVSS
VL: SYELTQPPSVSVAPGQTARITCGGNNIGSKSVHWYQQKPGQAPVLVVYDDTDRPSGIPERFSGSNSGNTATLTISRVEAGDEADYYCQVWDSSSDHYVFGTGTKLTVL
B2: A-9 (antibody, V domains shown)
VH: EVQLVESGGGLVKPGRSLRLSCAASGFTFADYAMSWFRQAPGKGLEWVGFIRSKPYGGTTEYAASVKGRFTISRDDSKSIAYLQMNSLKTEDTAVYYCSRDPWYCSGGDCYAVTGSWFDPWGQGTLVTVSS
VL: DIVLTQSPSSLSASVGDRVTITCQASQDIKKYLNWYQQKPGKAPKLLIYDVSNLETGVPSRFSGSGSGTDFTFTISSLQPEDVAIYYCQQYDNLPQTFGQGTKVDIK
B3: A-24.1 Fab (Fab, V domains shown)
VH: B2 VH with A33T, K54E
VL: B2 VL with V3Q, L4M, D105E
B4: A-24.3 Fab (Fab, V domains shown)
VH: B2 VH with A33T, K54E
VL: B2 VL with V3Q, L4M, Q27R, N93Q, D105E, K107E
B5: A-24 Fab (Fab, V domains shown)
VH: B2 VH
VL: B2 VL with V3Q, L4M, D105E
B6: A-18 (antibody, V domains shown)
VH: EVQLLESGGGLVQPGGSLRLSCAASGFTFSRYWMHWVRQAPGKGLVWVSRINSDGSSTTYADSVKGRFTISRDNAKNTLYLQMNSLRAEDTAVYYCARELYYYDSRGAEEGEGWFDPWGQGTLVTVSS
VL: QSVLTQPPSVSGAPGQRVTISCTGISSNIGAGYDVHWYQQLPGTAPKLLIYGNSNRPSGVPDRFSASKSGTSAPLAITGLQAEDEADYYCQSSDRSLSGSVFGTGTKLTVL
B7: A-6 (antibody, V domains shown)
VH: QVQLVQSGGGVVQPGRSLRLSCAASGFTFSNFAMHWVRQAPGKGLEWVAVILYDGINKYYADSVKGRFTISRGNSKNTLSLQMNSLRAEDTAVYYCARAQNYYDRSGTLQLDAFDIWGQGTMVTVSS
VL: DIVMTQSPSSLSASVGDRVTITCRASQGIRNDLGWYQQKPGKAPKLLIYAASSLQSGVPSRFSGSGSGTDFTLTISSLQPEDFATYYCLQDYNYPLTFGGGTKVEIK
B8: A-22 (antibody, V domains shown)
VH: not shown
VL: EIVLTQSPGTLSLSPGERATLSCRASQTVRSDLAWYQQKPGQAPRLLIYGASTRATDISDRFSGSGSGTEFTLTISSLQSEDFAVYYCQQYYEWPPHSDSFGGGTKVEIK

Experiments:
SARS-CoV-2 S Trimer = SARS-CoV-2 S Trimer (SARS-CoV-2, UniProt P0DTC2 16-1213); experiment: Octet BLI, IgG, avid
[1] = biological target: T2, SARS-CoV-2 wild type spike protein (on reporter virus particles) (SARS-CoV-2, UniProt P0DTC2 14-1273); experiment: cell-based or functional assay
[2] = biological target: T2, SARS-CoV-2 wild type spike protein (on …); experiment: cell-based or functional assay; remark: listed apart in the source
[3] = biological target: T2, SARS-CoV-2 wild type spike protein (on …); experiment: cell-based or functional assay; remark: listed apart in the source
[4] = biological target: T2, SARS-CoV-2 wild type spike protein (on …); experiment: cell-based or functional assay; remark: listed apart in the source
[5] = biological target: T2, SARS-CoV-2 wild type spike protein (on …); experiment: cell-based or functional assay; remark: listed apart in the source
SARS-CoV-2 Spike S1-His [6] = biological target: T3, SARS-CoV-2 Spike S1-His (SARS-CoV-2, UniProt P0DTC2 16-685); experiment: Octet BLI, IgG, monovalent
SARS-CoV1 Spike [change] [7] = biological target: T4, SARS-CoV1 Spike [change] (SARS-CoV-1, UniProt P59594 14-667); experiment: Octet BLI, IgG, monovalent
MERS-CoV [change] = biological target: T1, MERS-CoV [change]; experiment: Octet BLI, IgG, monovalent
SARS-CoV-2 WT RBD = SARS-CoV-2 WT RBD (SARS-CoV-2, UniProt P0DTC2 319-541); experiment: Octet BLI single point, monovalent
SARS-CoV-2 Spike S1-His [8] = biological target: T3, SARS-CoV-2 Spike S1-His; experiment: Octet BLI, Fab, monovalent
[9] = biological target: T2, SARS-CoV-2 wild type spike protein (on …); experiment: cell-based or functional assay; remark: listed apart in the source
SARS-CoV-1 spike protein = SARS-CoV-1 spike protein (SARS-CoV-1, UniProt P59594 14-1255); experiment: cell-based or functional assay
[10] = biological target: Bat coronavirus WIV16 spike protein (Bat coronavirus WIV16); experiment: cell-based or functional assay
[11] = biological target: T2, SARS-CoV-2 wild type spike protein (on …); experiment: cell-based or functional assay; remark: listed apart in the source
[12] = biological target: T2, SARS-CoV-2 wild type spike protein (on …); experiment: cell-based or functional assay; remark: listed apart in the source
SARS-CoV-2 Spike S1-His [13] = biological target: T3, SARS-CoV-2 Spike S1-His; experiment: Octet BLI, IgG, monovalent; remark: listed apart in the source
SARS-CoV1 Spike [change] [14] = biological target: T4, SARS-CoV1 Spike [change]; experiment: Octet BLI, IgG, monovalent; remark: listed apart in the source

Row | Binder | Kd (SARS-CoV-2 S Trimer) | PsV neutralization IC50 [1] | PsV neutralization IC90 [1] | SARS2 IC50 [3] | PsV IC50, Test 1 [4] | PsV IC50, Test 2 [4] | PsV Neut Assay IC50 [5] | Kd (SARS-CoV-2 Spike S1-His [6]) | binding result (MERS-CoV [change]) | Kd (SARS-CoV-2 WT RBD) | Kd (SARS-CoV-2 Spike S1-His [8]) | also measured
1 | B1 | 1.15 nM | 0.057 µg/mL | 0.399 µg/mL | 0.61 nM | 0.28 nM | 0.54 nM | 1.24 nM | 4.85 nM | no binding | 2.09 nM |  | PSV IC50 [2]: 0.186 µg/mL; binding result (SARS-CoV1 Spike [change] [7]): no binding
2 | B2 | 1 nM | 0.011 µg/mL | 0.164 µg/mL | 0.03 nM | 0.03 nM | 0.04 nM | 0.208 nM | 5.89 nM | no binding |  |  | binding result (SARS-CoV1 Spike [change] [7]): no binding
3 | B3 |  |  |  |  |  |  |  |  |  |  | 0.539 nM | 
4 | B4 |  |  |  |  |  |  |  |  |  |  | 0.244 nM | 
5 | B5 |  |  |  |  |  |  |  |  |  |  | 2.97 nM | 
6 | B6 | 1.69 nM | 0.303 µg/mL | 1.82 µg/mL | 5.9 nM | 0.14 nM | 2.78 nM | 9.88 nM | 1.09 nM | no binding | 0.527 nM |  | PsV neutralization IC50 [9]: 0.076 µg/mL; PsV neutralization IC90 [9]: 1.38 µg/mL; PsV neutralization IC50 (SARS-CoV-1 spike protein): 0.043 µg/mL; PsV neutralization IC90 (SARS-CoV-1 spike protein): 0.046 µg/mL; PsV neutralization IC50 [10]: 0.045 µg/mL; PsV neutralization IC90 [10]: 0.324 µg/mL; Kd (SARS-CoV1 Spike [change] [7]): 7.43 nM
7 | B7 | 1.35 nM | 0.173 µg/mL | 2.03 µg/mL | 0.023 nM | 0.12 nM | 2.45 nM | 5.85 nM | 3.71 nM | no binding | 1.18 nM |  | PsV neutralization IC50 [9]: 0.015 µg/mL; PsV neutralization IC90 [9]: 0.085 µg/mL; PsV neutralization IC50 (SARS-CoV-1 spike protein): 1.01 µg/mL; PsV neutralization IC50 [10]: 0.074 µg/mL; PsV neutralization IC90 [10]: 16.3 µg/mL; PSV IC50 [2]: 0.878 µg/mL; Kd (SARS-CoV1 Spike [change] [7]): 17.2 nM
8 | B8 |  | 0.749 µg/mL | 3.55 µg/mL | 0.06 nM |  |  |  |  |  | 0.325 nM |  | SARS2 PsV IC50 [11]: 5 nM; WT PsV IC50 [12]: 28.8 nM; Kd (SARS-CoV-2 Spike S1-His [13]): 0.244 nM; Kd (SARS-CoV1 Spike [change] [14]): 4.51 nM
